# Measured values: patent US20120039806A1 (BURNET INSTITUTE, published 2012)
# B1: mClec9A-ecto (tagged soluble ectodomain mouse Clec9A; stalk and CTLD) (receptor)
# chain: ASISARQNSGLHHILDAQKMVWNHRGARQDYKDDDDKTREQQERLIQQDTALVNLTQWQRKYTLEYCQALLQRSLHSGTDASTGPVLLTSPQMVPQTLDSKETGSDCSPCPHNWIQNGKSCYYVFERWEMWNISKKSCLKEGASLFQIDSKEEMEFISSIGKLKGGNKYWVGVFQDGISGSWFWEDGSSPLSDLLPAERQRSAGQICGYLKDSTLISDKCDSWKYFICEKKAFGSCI
# modifications: enzymatically biotinylated with BirA at the biotinylation consensus sequence where the filing says 'biotinylated' (ELISA, protein microarray); unbiotinylated FLAG-tagged protein in the pull-down and in FIG. 6
# notes: also called soluble FLAG-tagged m5B6; soluble mouse 5B6
# B2: mClec12A-ecto (soluble FLAG-tagged mouse Clec12A, control) (receptor, not shown: small tags and cut ends)
# chain (part 1 of 2): NSGLHHILDAQKMVWNHR
# chain (part 2 of 2): YTTLATEMIKSNQLQRAKEELQENVFLQLKHNLNSSKKIKNLSAMLQSTATQLCRELYSKEPEHKCKPCPKGSEWYKDSCYSQLNQYGTWQESVMACSARNASLLKVKNKDVLEFIKYKKLRYFWLALLPRKDRTQYPLSEKMFLSEESERSTDDIDKKYCGYIDRVNVYYTYCTDENNIICEETASKVQLESVLNGLPEDSR
# notes: extracellular domain; Control lectin
# B3: Cire-ecto (soluble FLAG-tagged C-type lectin Cire, control) (receptor, mouse, not shown: small tags and cut ends)
# chain (part 1 of 2): NSGLHHILDAQKMVWNHR
# chain (part 2 of 2): VKVYKIPSSQEENNQMNVYQELTQLKAGVDRLCRSCPWDWTHFQGSCYFFSVAQKSWNDSATACHNVGAQLVVIKSDEEQNFLQQTSKKRGYTWMGLIDMSKESTWYWVDGSPLTLSFMKYWSKGEPNNLGEEDCAEFRDDGWNDTKCTNKKFWICKKLSTSCPSK
# modifications: biotinylated with BirA where the filing says 'biotinylated' (ELISA, microarray)
# notes: extracellular domain; Control lectin; The construct is described only as similar to the Clec9A constructs; also called mouse Cire/mDCSign; biotinylated Cire-ecto
# B4: hCLEC9A-ecto (tagged soluble ectodomain human Clec9A; stalk and CTLD) (receptor)
# chain: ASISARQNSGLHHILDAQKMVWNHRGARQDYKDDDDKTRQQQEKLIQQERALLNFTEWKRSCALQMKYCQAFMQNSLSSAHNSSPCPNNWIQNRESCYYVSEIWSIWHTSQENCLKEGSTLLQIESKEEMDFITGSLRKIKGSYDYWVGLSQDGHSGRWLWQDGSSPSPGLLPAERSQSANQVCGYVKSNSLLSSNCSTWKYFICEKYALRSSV
# notes: also called soluble FLAG-tagged h5B6; soluble human 5B6
# Columns and labels:
# [1] = target: T1, GST protein (control, plasmid control) (UniProt P08515 1-218 = GST); assay: pull-down on glutathione beads, anti-FLAG Western blot
# T1 construct: also called GST alone; GST control
# Description: (§1) Glutathione Sepharose resin coupled with either GST or GST-RNF41 proteins was resuspended in the binding buffer (0.2% NP-40 and 2% glycerol in 20 mM Tris-buffered saline, pH 7.5 containing complete protease inhibitor cocktail mixture (Roche) and 1 mM PMSF) and mixed with 1 μg/m purified FLAG-tagged soluble Clec9A (also in binding buffer) and incubated at 4° C. on a rotating wheel for 2 hours. The beads were washed extensively with the binding buffer to remove unbound proteins. Bound proteins were eluted from the beads by the addition of 2×SDS reducing sample and heated at 92° C. for 5 minutes. The eluted proteins were separated by SDS-PAGE followed by Western blot with anti-FLAG antibody.
# (§2) The inventors subcloned and expressed full length RNF41 (RNF41FL), and RNF41 transcript variant 2 (RNF41₇₂₋₃₁₇) as GST-RNF41 fusion proteins in bacterial cells. The fusion proteins were immobilized onto glutathione beads, and incubated with mClec9A-ecto or with the control mClec12A-ecto. mClec9A-ecto directly bound to both GST-RNF41FL and GST-RNF41₇₂₋₃₁₇, but not to GST alone (FIG. 13). […] This confirmed that mClec9A binds specifically to RNF41.
# [2] = target: T2, membrane bound human 5B6 on transiently transfected 293T cells (full length untagged h5B6, pIRES-Neo) (human, UniProt Q6UXN8 1-241); assay: flow cytometry on transiently transfected live 293T cells, soluble FLAG-tagged protein
# T2 construct: also called human CLEC9A
# T2 sequence (Q6UXN8 whole entry): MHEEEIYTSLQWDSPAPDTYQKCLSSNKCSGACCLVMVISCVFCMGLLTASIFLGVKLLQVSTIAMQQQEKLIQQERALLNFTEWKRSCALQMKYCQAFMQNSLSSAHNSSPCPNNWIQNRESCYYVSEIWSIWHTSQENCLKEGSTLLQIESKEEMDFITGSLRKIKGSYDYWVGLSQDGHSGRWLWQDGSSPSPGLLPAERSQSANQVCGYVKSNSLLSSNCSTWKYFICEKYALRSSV
# Source text: (§3) Two-three days later, cells were harvested and surface immunofluorescence labeled using either (1) soluble FLAG-tagged biotinylated m5B6, h5B6 and Cire, and detected with Streptavidin PE, or (2) soluble FLAG-tagged 5B6, biotinylated anti-FLAG mAb 9H10, and Streptavidin-PE. Live cells were gated on forward and side scatter, or by propidium iodide exclusion and analysed for their surface binding of soluble 5B6.
# [3] = target: T3, membrane bound mouse 5B6 on transiently transfected 293T cells (full length untagged m5B6, pIRES-Neo) (mouse); assay: as above
# T3 construct: also called mouse Clec9A
# T3 chain: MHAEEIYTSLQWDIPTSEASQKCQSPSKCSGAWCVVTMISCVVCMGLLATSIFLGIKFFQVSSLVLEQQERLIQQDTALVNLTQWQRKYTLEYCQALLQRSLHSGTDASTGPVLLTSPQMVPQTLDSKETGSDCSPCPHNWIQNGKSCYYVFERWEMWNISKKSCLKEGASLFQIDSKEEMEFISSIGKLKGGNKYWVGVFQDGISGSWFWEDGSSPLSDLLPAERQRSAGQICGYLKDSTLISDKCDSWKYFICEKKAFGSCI
# Source text: as §3
# [4] = target: T4, GST-RNF41 72-317 (RNF41 transcript variant 2 as glutathione S-transferase fusion protein) (human, UniProt Q5R7T5 72-317 (Pongo abelii entry), N-terminal GST fusion, immobilised on Glutathione-Sepharose beads; carrier not in the letters); assay: pull-down on glutathione beads, anti-FLAG Western blot
# T4 construct: Expressed in BL21 (DE3) E. coli and immobilised on Glutathione-Sepharose 4B; not shown: GST carrier (glutathione S-transferase of the modified pGEX-2T vector) and any linker at the N end
# T4 sequence: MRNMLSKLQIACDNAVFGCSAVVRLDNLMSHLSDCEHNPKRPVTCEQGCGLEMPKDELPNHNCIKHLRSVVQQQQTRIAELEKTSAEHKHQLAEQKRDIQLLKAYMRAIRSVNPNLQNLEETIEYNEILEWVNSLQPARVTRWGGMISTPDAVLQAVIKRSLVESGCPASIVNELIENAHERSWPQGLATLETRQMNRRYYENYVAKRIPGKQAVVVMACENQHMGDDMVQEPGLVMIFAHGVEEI
# Description: as §1, §2
# [5] = target: T5, GST-RNF41FL (full length RNF41 as glutathione S-transferase fusion protein) (human, UniProt Q5R7T5 1-317 (Pongo abelii entry)); assay: as above
# T5 construct: Expressed in BL21 (DE3) E. coli, solubilised with Sarcosyl and immobilised on Glutathione-Sepharose 4B; also called GST-RNF41 fusion protein; not shown: glutathione S-transferase (GST) of a modified pGEX-2T vector (GE Healthcare)
# T5 sequence: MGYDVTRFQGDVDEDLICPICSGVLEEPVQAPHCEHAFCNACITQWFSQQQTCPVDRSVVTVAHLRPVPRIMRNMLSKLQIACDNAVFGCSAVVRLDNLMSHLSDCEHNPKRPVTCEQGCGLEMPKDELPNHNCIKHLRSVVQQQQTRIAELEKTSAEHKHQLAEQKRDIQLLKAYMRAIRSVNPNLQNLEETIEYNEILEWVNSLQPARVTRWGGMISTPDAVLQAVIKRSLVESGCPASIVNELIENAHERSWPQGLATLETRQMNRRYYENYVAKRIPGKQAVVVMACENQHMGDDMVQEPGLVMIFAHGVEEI
# Description: as §1, §2
# [6] = target: T6, RNF41 isoform encoded by RNF41 transcript variant 2 (Accession number NM-194358), GST-tagged, on the … (human, UniProt Q5R7T5 72-317 (Pongo abelii entry)); assay: human protein microarray (ProtoArray v4.1), biotinylated probe, Streptavidin-Alexa Fluor647
# T6 construct: A bought array (Invitrogen); also called isoforms of RNF41; not shown: GST tag of the array protein
# T6 sequence: T4 sequence
# Description: Biotinylated purified soluble mClec9A-ecto and Cire (control) were diluted to 50 μg/ml in Casein Washing Buffer (Invitrogen) and hybridised to Human protein microarrays using the “ProtoArray Human Protein Microarray v4.1 Protein-Protein Interaction (PPI) kit for biotinylated proteins” (Invitrogen, #PAH05241011) as per manufacturer's instructions. Binding of the biotinylated proteins was detected using Streptavidin-Alexa Fluor647, and images acquired using a fluorescence microarray scanner (GenePix4000B scanner, Axon Instruments). Positive interactions were identified using the ProtoArray Prospector software (Invitrogen).
# [7] = target: T7, Spectrin (purified from human erythrocytes, Sigma, #S3644) (human, UniProt P02549 1-2419; P11277 2-2137); assay: ELISA, spectrin coated, biotinylated soluble protein, SA-HRP
# T7 construct: mature; A bought native preparation; also called purified spectrin
# T7 sequence (P02549 whole entry, chain 1 of 2): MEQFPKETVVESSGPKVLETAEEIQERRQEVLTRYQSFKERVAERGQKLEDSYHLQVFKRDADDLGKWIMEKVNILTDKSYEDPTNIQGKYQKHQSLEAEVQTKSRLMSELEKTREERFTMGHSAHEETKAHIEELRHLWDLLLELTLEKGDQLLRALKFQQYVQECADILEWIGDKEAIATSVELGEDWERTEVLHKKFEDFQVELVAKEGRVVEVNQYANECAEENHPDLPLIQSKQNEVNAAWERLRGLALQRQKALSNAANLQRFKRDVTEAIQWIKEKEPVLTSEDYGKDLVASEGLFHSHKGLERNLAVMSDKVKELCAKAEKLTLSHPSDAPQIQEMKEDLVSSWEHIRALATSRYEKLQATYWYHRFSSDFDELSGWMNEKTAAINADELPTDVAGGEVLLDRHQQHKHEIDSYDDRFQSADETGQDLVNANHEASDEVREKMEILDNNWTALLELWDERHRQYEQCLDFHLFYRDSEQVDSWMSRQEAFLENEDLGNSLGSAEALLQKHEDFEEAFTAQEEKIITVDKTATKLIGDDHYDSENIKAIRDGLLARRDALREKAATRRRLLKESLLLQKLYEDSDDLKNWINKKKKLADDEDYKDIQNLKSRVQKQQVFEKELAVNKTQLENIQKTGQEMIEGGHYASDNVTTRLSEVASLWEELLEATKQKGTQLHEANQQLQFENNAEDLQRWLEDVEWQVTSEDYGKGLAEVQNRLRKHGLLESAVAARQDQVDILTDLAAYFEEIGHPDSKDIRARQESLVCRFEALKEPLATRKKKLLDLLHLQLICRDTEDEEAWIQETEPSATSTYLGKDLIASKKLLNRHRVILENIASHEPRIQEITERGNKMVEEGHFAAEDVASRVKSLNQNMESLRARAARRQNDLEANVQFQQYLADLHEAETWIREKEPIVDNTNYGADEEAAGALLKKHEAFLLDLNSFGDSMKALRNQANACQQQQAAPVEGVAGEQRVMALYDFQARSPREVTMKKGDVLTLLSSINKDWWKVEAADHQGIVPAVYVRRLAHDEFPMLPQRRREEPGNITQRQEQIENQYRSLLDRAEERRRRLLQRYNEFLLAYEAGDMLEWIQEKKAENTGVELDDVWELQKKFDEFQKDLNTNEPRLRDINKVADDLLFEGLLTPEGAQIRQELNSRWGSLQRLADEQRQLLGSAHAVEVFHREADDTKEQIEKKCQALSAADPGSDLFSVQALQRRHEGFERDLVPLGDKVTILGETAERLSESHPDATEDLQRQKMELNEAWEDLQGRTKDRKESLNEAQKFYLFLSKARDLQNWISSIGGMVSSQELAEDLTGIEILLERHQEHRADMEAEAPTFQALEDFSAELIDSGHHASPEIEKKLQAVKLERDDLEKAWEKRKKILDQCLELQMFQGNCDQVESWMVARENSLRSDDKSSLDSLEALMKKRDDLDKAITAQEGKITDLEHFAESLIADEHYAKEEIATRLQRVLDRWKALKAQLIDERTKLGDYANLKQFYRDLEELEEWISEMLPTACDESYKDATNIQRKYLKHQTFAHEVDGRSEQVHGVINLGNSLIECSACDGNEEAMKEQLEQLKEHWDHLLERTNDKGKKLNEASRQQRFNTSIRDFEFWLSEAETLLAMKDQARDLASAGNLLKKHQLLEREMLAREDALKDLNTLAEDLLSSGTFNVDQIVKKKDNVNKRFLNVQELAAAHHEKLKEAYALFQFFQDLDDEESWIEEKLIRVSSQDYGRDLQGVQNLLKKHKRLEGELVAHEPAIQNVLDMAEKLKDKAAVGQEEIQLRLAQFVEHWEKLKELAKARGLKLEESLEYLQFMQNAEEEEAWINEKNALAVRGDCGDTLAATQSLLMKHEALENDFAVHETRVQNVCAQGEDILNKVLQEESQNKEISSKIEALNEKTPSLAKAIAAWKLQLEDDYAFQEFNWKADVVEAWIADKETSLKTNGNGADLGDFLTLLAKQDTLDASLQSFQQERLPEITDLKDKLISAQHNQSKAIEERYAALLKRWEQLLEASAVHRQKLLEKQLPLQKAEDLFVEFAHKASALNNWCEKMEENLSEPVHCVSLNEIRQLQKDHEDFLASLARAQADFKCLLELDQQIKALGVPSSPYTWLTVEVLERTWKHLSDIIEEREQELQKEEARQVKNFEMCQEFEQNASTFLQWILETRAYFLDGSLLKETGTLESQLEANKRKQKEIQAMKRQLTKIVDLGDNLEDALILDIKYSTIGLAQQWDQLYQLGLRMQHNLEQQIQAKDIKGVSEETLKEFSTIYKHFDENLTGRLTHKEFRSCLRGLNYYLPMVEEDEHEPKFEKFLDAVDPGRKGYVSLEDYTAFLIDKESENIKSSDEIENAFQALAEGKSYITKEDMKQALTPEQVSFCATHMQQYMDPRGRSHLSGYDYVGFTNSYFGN
# T7 sequence (P11277 2-2137, chain 2 of 2): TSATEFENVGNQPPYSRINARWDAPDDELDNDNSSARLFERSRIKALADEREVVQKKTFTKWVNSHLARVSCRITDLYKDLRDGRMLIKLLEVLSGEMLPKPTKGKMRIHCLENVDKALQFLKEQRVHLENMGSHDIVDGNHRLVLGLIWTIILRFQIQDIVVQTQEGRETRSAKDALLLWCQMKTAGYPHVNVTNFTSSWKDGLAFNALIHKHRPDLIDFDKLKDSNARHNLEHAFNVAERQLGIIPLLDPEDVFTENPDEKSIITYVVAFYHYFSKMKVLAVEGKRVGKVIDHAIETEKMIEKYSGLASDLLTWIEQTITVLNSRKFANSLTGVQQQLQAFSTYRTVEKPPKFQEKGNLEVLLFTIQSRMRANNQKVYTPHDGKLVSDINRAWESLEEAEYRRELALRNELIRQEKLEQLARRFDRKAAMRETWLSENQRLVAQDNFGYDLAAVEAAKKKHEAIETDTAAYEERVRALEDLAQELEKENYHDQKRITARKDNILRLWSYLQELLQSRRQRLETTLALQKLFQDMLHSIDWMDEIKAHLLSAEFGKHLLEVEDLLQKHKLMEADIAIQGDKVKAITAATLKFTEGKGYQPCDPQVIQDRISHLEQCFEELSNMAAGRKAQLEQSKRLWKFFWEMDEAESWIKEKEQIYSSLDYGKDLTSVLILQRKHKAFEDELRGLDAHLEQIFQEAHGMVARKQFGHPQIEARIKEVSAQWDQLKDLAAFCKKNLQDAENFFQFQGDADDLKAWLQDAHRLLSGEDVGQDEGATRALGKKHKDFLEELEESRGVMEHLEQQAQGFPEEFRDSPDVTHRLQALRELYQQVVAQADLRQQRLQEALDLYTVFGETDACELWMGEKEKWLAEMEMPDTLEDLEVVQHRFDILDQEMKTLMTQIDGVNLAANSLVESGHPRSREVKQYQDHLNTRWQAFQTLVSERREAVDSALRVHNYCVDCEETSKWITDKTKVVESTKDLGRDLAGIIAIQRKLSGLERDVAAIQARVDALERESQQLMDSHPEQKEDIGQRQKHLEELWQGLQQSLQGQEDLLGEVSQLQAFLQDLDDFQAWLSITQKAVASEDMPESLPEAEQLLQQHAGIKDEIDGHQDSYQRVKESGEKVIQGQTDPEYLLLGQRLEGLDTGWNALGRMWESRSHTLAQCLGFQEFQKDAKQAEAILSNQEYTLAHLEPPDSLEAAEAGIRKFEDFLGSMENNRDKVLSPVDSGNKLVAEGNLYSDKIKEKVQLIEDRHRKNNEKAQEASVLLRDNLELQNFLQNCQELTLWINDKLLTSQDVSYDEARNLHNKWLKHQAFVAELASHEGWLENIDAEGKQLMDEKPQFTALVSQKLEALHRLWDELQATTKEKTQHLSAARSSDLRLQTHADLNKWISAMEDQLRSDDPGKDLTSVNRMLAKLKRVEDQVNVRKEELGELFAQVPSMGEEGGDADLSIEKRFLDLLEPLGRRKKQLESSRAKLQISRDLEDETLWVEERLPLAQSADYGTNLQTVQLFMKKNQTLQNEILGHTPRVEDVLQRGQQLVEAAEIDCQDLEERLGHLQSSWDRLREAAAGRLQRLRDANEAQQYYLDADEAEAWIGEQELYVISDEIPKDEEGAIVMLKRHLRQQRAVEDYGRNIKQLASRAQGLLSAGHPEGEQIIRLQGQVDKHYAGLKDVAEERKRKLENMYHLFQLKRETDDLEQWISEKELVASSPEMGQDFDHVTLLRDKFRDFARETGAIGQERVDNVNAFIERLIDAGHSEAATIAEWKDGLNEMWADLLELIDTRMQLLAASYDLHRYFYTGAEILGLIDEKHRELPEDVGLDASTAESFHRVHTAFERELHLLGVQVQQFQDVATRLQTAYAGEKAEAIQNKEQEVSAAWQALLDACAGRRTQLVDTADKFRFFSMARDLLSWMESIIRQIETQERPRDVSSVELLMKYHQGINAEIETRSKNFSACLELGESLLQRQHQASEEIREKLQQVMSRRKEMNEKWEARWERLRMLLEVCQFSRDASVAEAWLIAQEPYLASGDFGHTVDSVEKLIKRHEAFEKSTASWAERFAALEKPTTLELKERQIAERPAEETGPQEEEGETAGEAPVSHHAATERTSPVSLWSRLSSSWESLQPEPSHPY
# Description: ELISA plates (Costar, Broadway, Cambridge, UK) were coated overnight at 4° C. with […] of Spectrin (purified from human erythrocytes, Sigma, #S3644) or Actin (Sigma). Unbound proteins were washed away (PBS, 0.05% Tween-20), and the ELISA plates blocked with PBS, 1% BSA. Serially diluted biotinylated purified mClec9A-ecto, mClec9A-CTLD and Cire soluble proteins were plated (PBS, 1% BSA) and incubated at 4° C. overnight. Bound soluble proteins were detected using Streptavidin-HRP and visualised using ABTS.
binder,measurement,setting,value
B1,binding result,[1],no binding (tested: 1 µg/m)
same,binding result,[2],binds
same,binding result,[3],binds
B2,binding result,[4],no binding (tested: 1 µg/m)
same,binding result,[5],no binding (tested: 1 µg/m)
B3,binding result,[6],no binding (tested: 50 µg/ml)
same,binding result,[7],no binding
B4,binding result,[2],binds
same,binding result,[3],binds
